Assay results taken from patent US10808017B2, “Ubiquitin variants and uses therof as 53BP1 inhibitors” (The Governing Council of the University of Toronto, priority 2016, dated 2020).
Values joined by “and” are separate entries in the source; they are usually repeats but may differ in a detail not shown here. Equal entries are not always repeated.

Columns and labels:
TP53BP1 = target: T1, TP53BP1 (Homo sapiens, UniProt Q12888); experiment: Flag IP-MS of i53/i53-DM baits: prey TP53BP1; format: binding
T1 construct: endogenous in cells; host or cells: HEK293 Flp-In/T-REx
Method: (§1) Following immunoprecipitation of Flag-tagged i53 and i-53-DM from HEK293 Flp-In/T-REx cells, peptides were identified using LC-MS/MS. Proteins were digested in solution with trypsin (Sigma, T7575-1KT) and dried to completeness. For LC-MS/MS analysis, peptides were reconstituted in 5% formic acid and loaded onto a 12-15 cm fused silica column with pulled tip packed in-house with 3.5 μm Zorbax C18 (Agilent Technologies, Calif., USA).
(§2) i53 and i53-DM precipitates were analyzed using an LTQ (Thermo Scientific) coupled to an Agilent 1100 Series HPLC (Agilent Technologies). Peptides were eluted from the column using a 90 min period cycle with a linear gradient from 0% to 40% ACN in 0.1% formic acid. Tandem MS spectra were acquired in a data-dependent mode for the top 5 (LTQ) most abundant ions using collision-induced dissociation. Acquired spectra were searched against the human Refseq_V53 database using Mascot (Matrix Science).
(§3) 293T Flp-In/T-Rex cell lines were generated that expressed Flag-tagged i53 or i53-DM under the control of a tetracycline-inducible promoter as previously described. Nine IP-MS experiments were analyzed (3 biological replicate IPs each for control i53- and i53-DM expressing cell lines). The interacting proteins were identified by MASCOT to identify high-confidence interactors for i53. […]

NAP1L1 = target: T2, NAP1L1 (Homo sapiens, UniProt P55209); experiment: Flag IP-MS of i53/i53-DM baits: prey NAP1L1; format: binding; conditions: 293T Flp-In/T-Rex extracts, LC-MS/MS, one column per replicate IP
T2 construct: endogenous in cells; host or cells: HEK293 Flp-In/T-REx
T2 sequence (P55209 1-391): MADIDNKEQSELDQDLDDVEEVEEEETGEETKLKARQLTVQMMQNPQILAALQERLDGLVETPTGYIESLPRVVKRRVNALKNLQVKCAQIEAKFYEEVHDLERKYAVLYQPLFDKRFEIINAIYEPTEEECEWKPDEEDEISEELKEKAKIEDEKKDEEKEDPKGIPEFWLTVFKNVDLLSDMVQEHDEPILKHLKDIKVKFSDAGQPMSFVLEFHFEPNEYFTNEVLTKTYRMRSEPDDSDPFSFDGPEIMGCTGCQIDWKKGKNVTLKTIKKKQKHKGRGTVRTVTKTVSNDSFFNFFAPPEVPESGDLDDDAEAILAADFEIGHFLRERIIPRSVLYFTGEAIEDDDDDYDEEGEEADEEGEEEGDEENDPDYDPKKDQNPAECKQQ
Method: as §1, §2, §3

[1] = target: T3, 53BP1 recruitment to DSB sites in U2OS cells (Homo sapiens, UniProt Q12888); experiment: Ionizing radiation focus formation, 53BP1 (immunofluorescence); format: cell-based; conditions: transfected U2OS cells, 10 Gy X-rays, 1 h post-irradiation
T3 construct: endogenous in cells; host or cells: U2OS
Method: FIG. 3. The i53 protein inhibits 53BP1. FIG. 3A-B, U2OS cells were transfected with vectors expressing i53, its 53BP1-binding deficient mutant (DM) or an empty vector (EV) control. Cells were then X-irradiated with a 10 Gy dose and processed for immunofluorescence with the indicated antibodies 1 h post-irradiation (IR). DAPI staining (not shown) was used to delineate the outline (dashed lines) of the cell nuclei. The region in the magnified inset is indicated with a square. Quantitation of the experiment is shown in panel (a) and data is indicated as the mean±s.e.m (N=3), whereas in (b) representative micrographs are shown. Arrowheads indicate Flag-positive cells. FIG. 3C, Parental or 53BP1ΔU2OS cells transfected with vectors expressing i53, the DM mutant or an empty vector (EV) control were irradiated (10 Gy) 1 h before being processed for immunofluorescence. Cell cycle stage was assessed by Cyclin A staining. The data is presented as the mean±s.e.m.; N=3. FIG. 3D, Immunoprecipitation (IP) of Flag-tagged proteins from extracts prepared from 293T cells transfected with vectors expressing Flag-i53 or the i53-DM mutant. Proteins were separated by SDS-PAGE and immunoblotted (IB) for Flag and 53BP1. […]

ARFGAP2 = target: T4, ARFGAP2 (Homo sapiens, UniProt Q8N6H7); experiment: Flag IP-MS of i53/i53-DM baits: prey ARFGAP2; format: binding; conditions: 293T Flp-In/T-Rex extracts, LC-MS/MS, one column per replicate IP
T4 construct: endogenous in cells; host or cells: HEK293 Flp-In/T-REx
Method: as §1, §2, §3

RPL10 = target: T5, RPL10 (Homo sapiens, UniProt P27635); experiment: Flag IP-MS of i53/i53-DM baits: prey RPL10; format: binding; conditions: 293T Flp-In/T-Rex extracts, LC-MS/MS, one column per replicate IP
T5 construct: endogenous in cells; host or cells: HEK293 Flp-In/T-REx
Method: as §1, §2, §3

TTC12 = target: T6, TTC12 (Homo sapiens, UniProt Q9H892); experiment: Flag IP-MS of i53/i53-DM baits: prey TTC12; format: binding; conditions: 293T Flp-In/T-Rex extracts, LC-MS/MS, one column per replicate IP
T6 construct: endogenous in cells; host or cells: HEK293 Flp-In/T-REx cells
T6 sequence (Q9H892 1-705): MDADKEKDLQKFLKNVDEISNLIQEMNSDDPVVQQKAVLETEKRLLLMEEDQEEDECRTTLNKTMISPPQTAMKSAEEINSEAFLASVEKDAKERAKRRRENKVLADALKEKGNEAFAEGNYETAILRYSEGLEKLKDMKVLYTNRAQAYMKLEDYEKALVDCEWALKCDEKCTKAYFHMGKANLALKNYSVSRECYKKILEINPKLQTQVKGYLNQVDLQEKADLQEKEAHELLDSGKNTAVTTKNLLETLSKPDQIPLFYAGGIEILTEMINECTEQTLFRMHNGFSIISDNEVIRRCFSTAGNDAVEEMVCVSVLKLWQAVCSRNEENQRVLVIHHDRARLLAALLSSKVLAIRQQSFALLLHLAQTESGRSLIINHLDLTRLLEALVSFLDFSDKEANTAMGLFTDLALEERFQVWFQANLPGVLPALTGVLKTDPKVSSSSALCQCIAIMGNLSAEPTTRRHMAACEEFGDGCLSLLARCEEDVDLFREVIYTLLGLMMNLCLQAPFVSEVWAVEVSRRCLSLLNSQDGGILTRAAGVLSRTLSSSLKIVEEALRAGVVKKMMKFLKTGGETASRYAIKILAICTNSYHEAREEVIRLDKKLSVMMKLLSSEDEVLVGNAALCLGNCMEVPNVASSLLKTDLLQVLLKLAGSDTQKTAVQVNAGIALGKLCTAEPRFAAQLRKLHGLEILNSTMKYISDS
Method: as §1, §2, §3

TRIOBP = target: T7, TRIOBP (Homo sapiens, UniProt Q9H2D6); experiment: Flag IP-MS of i53/i53-DM baits: prey TRIOBP; format: binding; conditions: 293T Flp-In/T-Rex extracts, LC-MS/MS, one column per replicate IP
T7 construct: endogenous in cells; host or cells: HEK293 Flp-In/T-REx
Method: as §1, §2, §3

T1 sequence (Q12888 whole entry): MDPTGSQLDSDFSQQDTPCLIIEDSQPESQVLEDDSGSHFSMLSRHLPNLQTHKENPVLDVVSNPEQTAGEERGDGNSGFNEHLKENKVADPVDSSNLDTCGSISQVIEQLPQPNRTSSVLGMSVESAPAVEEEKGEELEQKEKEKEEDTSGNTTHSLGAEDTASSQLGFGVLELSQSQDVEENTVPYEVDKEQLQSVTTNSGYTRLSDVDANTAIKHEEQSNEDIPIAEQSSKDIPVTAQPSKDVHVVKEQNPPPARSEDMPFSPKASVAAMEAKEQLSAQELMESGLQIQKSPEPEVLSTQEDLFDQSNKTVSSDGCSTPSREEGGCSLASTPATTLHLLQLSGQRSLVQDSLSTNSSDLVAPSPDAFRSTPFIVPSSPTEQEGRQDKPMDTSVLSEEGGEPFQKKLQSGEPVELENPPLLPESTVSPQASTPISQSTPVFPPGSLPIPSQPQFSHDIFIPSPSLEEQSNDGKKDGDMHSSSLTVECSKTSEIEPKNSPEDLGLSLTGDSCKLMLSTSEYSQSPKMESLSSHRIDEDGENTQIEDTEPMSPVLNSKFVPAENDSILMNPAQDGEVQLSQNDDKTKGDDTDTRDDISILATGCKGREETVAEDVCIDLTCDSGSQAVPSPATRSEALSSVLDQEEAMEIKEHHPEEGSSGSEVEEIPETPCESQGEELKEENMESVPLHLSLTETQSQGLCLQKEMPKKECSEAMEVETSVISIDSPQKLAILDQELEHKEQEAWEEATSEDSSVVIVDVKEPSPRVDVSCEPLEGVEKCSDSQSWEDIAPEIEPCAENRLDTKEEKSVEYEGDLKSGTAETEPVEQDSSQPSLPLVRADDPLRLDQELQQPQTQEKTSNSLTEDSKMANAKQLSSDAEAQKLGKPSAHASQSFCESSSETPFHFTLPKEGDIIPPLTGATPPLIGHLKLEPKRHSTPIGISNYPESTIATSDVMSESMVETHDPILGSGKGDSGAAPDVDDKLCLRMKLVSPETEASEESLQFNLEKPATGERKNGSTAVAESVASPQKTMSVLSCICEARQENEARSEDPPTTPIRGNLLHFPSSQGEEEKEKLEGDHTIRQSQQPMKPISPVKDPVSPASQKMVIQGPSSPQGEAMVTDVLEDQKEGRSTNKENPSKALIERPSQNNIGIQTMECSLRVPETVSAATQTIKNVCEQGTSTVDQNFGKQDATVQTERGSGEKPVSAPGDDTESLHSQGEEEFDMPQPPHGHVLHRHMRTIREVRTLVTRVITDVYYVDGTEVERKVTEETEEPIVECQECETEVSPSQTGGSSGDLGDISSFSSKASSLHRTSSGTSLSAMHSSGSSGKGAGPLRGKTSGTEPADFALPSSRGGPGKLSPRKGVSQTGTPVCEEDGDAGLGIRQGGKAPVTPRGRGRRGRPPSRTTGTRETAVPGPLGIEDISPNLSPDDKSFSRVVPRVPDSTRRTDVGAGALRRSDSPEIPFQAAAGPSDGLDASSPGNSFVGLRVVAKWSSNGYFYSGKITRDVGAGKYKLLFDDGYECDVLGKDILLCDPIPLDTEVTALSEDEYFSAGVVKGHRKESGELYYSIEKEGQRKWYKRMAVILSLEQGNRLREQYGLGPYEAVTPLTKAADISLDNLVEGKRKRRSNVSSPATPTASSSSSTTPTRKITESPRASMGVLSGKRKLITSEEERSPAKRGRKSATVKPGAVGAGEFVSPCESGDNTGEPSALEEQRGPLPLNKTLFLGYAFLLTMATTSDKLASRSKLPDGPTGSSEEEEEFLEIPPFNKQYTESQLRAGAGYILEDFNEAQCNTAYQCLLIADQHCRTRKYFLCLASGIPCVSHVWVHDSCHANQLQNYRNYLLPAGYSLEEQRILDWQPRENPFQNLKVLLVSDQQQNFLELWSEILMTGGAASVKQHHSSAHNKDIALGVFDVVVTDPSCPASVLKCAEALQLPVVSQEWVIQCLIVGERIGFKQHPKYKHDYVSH
T7 sequence (Q9H2D6 whole entry): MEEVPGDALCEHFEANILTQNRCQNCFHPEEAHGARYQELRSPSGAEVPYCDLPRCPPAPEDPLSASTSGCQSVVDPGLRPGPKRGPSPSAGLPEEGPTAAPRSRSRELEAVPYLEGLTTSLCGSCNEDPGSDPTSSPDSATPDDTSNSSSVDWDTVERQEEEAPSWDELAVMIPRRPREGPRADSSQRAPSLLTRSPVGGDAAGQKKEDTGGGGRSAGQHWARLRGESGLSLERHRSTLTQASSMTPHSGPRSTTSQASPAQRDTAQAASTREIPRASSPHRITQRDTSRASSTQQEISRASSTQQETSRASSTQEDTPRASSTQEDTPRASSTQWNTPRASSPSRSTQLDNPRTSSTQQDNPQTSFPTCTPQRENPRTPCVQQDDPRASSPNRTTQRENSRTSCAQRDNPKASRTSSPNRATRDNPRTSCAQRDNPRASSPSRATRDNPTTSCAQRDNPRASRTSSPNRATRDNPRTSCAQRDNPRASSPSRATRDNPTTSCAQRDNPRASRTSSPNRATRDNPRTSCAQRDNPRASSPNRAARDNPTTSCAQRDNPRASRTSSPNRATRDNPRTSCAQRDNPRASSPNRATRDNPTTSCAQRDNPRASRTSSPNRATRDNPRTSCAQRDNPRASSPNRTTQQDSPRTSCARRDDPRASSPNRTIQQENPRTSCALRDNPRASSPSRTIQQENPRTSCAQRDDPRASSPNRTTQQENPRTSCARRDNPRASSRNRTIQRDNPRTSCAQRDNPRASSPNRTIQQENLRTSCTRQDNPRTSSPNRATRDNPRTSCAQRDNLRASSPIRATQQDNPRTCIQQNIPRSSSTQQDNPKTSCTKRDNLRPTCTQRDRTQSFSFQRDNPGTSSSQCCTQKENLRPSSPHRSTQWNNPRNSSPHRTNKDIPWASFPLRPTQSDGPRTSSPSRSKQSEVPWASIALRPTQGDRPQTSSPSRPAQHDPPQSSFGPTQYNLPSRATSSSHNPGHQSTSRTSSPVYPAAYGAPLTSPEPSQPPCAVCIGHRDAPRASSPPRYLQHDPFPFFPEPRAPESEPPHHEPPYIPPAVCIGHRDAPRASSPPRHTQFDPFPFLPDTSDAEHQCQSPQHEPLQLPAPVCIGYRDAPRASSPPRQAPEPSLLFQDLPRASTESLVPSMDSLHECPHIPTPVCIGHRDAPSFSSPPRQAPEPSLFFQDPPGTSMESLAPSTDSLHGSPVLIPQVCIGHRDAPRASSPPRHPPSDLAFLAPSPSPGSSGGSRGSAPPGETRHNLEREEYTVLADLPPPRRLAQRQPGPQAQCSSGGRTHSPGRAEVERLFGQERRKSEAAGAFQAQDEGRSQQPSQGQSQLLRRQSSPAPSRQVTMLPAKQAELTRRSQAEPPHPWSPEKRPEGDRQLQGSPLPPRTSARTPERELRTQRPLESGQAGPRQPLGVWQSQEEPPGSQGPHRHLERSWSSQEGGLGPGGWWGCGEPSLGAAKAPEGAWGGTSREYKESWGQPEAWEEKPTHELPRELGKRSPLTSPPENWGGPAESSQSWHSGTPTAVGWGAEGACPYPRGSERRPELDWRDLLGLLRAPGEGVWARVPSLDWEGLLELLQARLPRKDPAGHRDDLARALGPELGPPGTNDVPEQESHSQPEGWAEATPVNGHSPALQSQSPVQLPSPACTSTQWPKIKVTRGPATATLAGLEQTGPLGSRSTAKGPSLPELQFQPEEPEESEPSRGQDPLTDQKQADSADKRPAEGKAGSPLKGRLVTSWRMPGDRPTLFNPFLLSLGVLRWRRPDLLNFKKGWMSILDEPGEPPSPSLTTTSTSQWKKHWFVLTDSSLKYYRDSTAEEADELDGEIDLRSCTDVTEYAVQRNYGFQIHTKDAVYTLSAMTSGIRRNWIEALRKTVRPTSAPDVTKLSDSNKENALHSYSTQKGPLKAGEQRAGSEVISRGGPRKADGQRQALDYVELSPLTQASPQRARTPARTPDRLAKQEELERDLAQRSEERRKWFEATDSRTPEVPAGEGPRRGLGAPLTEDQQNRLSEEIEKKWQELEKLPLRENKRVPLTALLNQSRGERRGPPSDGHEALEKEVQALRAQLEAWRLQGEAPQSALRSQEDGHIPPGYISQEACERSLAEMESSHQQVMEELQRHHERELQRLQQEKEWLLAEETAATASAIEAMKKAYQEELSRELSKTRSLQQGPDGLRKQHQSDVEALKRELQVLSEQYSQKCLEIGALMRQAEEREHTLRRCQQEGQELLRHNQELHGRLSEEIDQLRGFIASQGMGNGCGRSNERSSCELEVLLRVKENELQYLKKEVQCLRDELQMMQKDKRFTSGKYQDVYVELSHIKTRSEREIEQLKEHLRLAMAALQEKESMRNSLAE
T3 sequence (Q12888 whole entry): as the sequence (Q12888 whole entry) above
T4 sequence (Q8N6H7 whole entry): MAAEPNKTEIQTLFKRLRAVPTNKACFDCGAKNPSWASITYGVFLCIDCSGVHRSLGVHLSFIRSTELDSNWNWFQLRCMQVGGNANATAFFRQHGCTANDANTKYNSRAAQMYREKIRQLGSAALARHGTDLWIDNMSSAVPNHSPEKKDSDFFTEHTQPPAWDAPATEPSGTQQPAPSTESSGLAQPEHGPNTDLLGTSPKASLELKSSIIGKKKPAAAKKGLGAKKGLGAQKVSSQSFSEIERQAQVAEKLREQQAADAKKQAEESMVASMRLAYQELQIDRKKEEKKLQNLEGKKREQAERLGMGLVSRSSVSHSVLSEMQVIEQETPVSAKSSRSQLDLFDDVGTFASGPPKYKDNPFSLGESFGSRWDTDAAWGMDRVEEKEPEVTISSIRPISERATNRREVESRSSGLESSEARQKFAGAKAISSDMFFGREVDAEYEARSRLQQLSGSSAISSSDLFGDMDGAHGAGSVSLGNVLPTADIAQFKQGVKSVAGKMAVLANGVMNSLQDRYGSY

Total peptides, TP53BP1 (TP53BP1; Flag IP, 293T Flp-In/T-Rex extracts, LC-MS/MS, one column per replicate IP, listed as Flag-i53) | Selectivity of binding to cellular proteins (IP-MS conclusion) (TP53BP1; three biological replicate IPs, interactors in two or more experiments) | Total peptides, NAP1L1 (NAP1L1) | Total peptides, ARFGAP2 (ARFGAP2) | Total peptides, RPL10 (RPL10) | Total peptides, TTC12 (TTC12) | Total peptides, TRIOBP (TRIOBP) | Substance | 53BP1 recruitment to DSB sites (ionizing radiation focus formation) [1]
66 and 38 and 21 | highly selective binder of 53BP1 | 4 | – | – | – | – | i53: UbvG08 with C-terminal di-glycine removed and I44A mutation; genetically encoded inhibitor of 53BP1 | strongly suppressed 53BP1 recruitment to DSB sites
– | – | – | 3 | 11 | 3 | 3 | i53-DM: 53BP1-binding deficient mutant of i53 (P69L, L70V) | –
